Source: patent publication US20260176332A1 (BEIJING MDTK BIOTECHNOLOGY, published 2026)

Columns and labels:
[1] = biological target: T1, Specific Peptide (SEQ ID NO:4: GVPAEGAFTEDFQGLR) (human); experiment: ELISA, peptide coated at 2 ug/ml, hybridoma supernatant diluted 100 times
T1 construct: Synthetic peptide coated on the ELISA plate; also called polypeptide number #1
T1 peptide: GVPAEGAFTEDFQGLR
Procedure: (§1) (1) Coating antigen: Specific Peptide and Elongated Peptide were respectively diluted with the coating solution, and coated at 2 μg/ml, 100 ul/well at 4° C. overnight; washed three times with the washing solution, 350 ul/well, and pat dried. (2) Blocking: 200 ul/well blocking solution, incubated at 37° C. for 2 h; washed three times with the washing solution, 350 ul/well, and pat dried. (3) The antibody (such as #25, #44, or #50) supernatant medium in Table 1 was diluted by 100 times with antibody diluent, 100 ul/well, and the blank was 100 ul antibody dilution, and they were incubated at 37° C. for 1 h; washed three times with the washing solution, 350 ul/well, and pat dried. (4) The secondary antibody was diluted with antibody diluent at a ratio of 1:10000, 100 ul/well, incubated at 37° C. for 1 h; washed three times with the washing solution, 350 ul/well, and pat dried. (5) Color development: 100 ul/well developer was added, incubating 10 min at room temperature. (6) Termination, reading: 100 ul/well stop solution was added, reading at OD 450 nm.

[2] = biological target: T2, Elongated Peptide (SEQ ID NO:5: TDGVPAEGAFTEDFQGLR) (human); experiment: as above
T2 construct: Synthetic peptide coated on the ELISA plate
T2 peptide: TDGVPAEGAFTEDFQGLR
Procedure: as §1

[3] = biological target: T3, GSDMD-CT expressed protein (human, UniProt P57764 276-484); experiment: competitive inhibition ELISA, coated GSDMD-CT vs soluble GSDMD-CT (FIG. 5)
T3 construct: Recombinantly expressed; also called recombinant GSDMD-CT; C-terminus of GSDMD
T3 sequence: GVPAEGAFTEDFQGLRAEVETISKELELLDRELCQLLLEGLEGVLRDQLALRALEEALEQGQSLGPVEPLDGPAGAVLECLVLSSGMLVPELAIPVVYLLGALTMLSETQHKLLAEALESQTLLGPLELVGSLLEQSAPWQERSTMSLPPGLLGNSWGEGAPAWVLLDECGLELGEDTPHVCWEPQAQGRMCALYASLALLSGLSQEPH
Procedure: The protein coating amount and antibody dilution concentration were preliminarily determined by checkerboard titration, and the experimental procedure was as follows:
(1) Coating antigen: The GSDMD-CT expressed protein was diluted with coating solution and coated at 2 ug/ml, 1 ug/ml, 0.5 ug/ml, 0.25 ug/ml, 100 ul/well overnight at 4° C.; washed three times with the washing solution, 350 ul/well, and pat dried. (2) Blocking: 200 ul/well blocking solution, incubated at 37° C. for 2 h; washed three times with the washing solution, 350 ul/well, and pat dried. (3) 1 ug/mL of #25, #44, and #50 antibodies was diluted 1,000 times with antibody diluent, then diluted with a 2-fold gradient, 100 μl/well, and blank was 100 μl of antibody diluent, and the antibodies were incubated at 37° C. for 1 h; washed three times with the washing solution, 350 ul/well, and pat dried. […] (6) Termination, reading: 100 ul/well stop solution was added, reading at OD 450 nm. (7) The dose curve of coating protein relative to antibody was determined. […] (10) 50 ul of sample solutions of different concentrations were added to 50 ul of diluted antibody, and then 100 ul of the mixture was added to the microplate reader plate and incubated for 1 h at 37° C.

binding result [1]: binds
binding result [2]: no binding
binding result [3]: binds
B1: MD2106 #50 (antibody, IgG1, V domains shown)
VH: QVQLQQPGTELVKPGASVKLSCKASGYTFTNYWIHWVKQRPGQGLEWIGNTKPSNGDIHYNEKFRSKATLTVDKSSSTAYIQLSSLTSEDSAVYFCAVGYYWGQGTTLTVSS
VL: DIVMTQSPSSLTVTAGEKVTMSCKSSQSLLNSGNQKNYLTWYQQKPGQPPKMLIYWAYNRDSGVPDRFTGSGSGADFTLTISSVQAEDLAVYYCQNDYSYPLTFGAGTKLEL
notes: Mouse hybridoma monoclonal antibody; heavy chain type IgG1, light chain type kappa; Hybridoma supernatant diluted 100 times in the peptide ELISA; 1 ug/mL antibody, further diluted, in the GSDMD-CT ELISA; also called monoclonal antibody #50; MD2106-#5 #50
